Test: yeast display, Sf9 membrane polyspecificity reagent, FACS + sequencing; frameworks hold sequencing errors
How it was run: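 Synthetic nanobody libraries on Saccharomyces cerevisiae BJ5465 were galactose-induced for 36–48 hours, stained 1 hour at 4 °C with 10% biotinylated, detergent-solubilized Sf9 membrane reagent and enriched on streptavidin microbeads. FACS then separated cells into low and high (top ~1%) gates by anti-HA (expression) and streptavidin (reagent binding) fluorescence. Genes were colony-PCR amplified, MiSeq 2 × 250 sequenced and CDR-length filtered. A clone's polyreactivity label is that of its gate of origin.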

Row | Sequence | polyreactivity (PSR sort gate)
1 | QVQLVESVGGLVQARGSLRLICAASVRIIRGNAMGWYRQAPGKERELVAAISRRSGSTYYADSVKGRFTISRDNAKNTVYLQMISLKPEDTAVYYCAATCSLGDFRYDYWGQGTQVSVSS | high polyreactivity
2 | QVQLVESGGGLVQAGGSLRLSCAASGSTFAGNTMGWYRQAPGKERELVAAITWNGGRTRYADSVKGRFTISRDNAKNTVYLQMNSLKPEDTAVYYCNAGPWYENMDYWGQGTQVTVSS | high polyreactivity
3 | QVLLVESCGGLVQAGGSLRLSCAASGRIFPLYAMGWYRQAPGKERELVAAISSGGTTYYADSVKGRFTISRDNAKNTVYLQMNSLKPEDTAVYYCNVEYVISWWMYDYWGQGTQVTVSS | low polyreactivity
4 | QVQQQESGGGLEQAGGSLRLSCAASGTIFQLTVMGRYRQAPGKERELVASIDYGGNTNYADSVKGRFTISRDNAKKTVYLQMNSLKPEDTAVYYCAASSDSWTTHPYWGQGTQVTVSS | low polyreactivity
5 | QVQLVESGGGLVQAGGRLRLSCAASGIISRFYAMGWYRQAPGKERELVARISGSGGSTYYADSVKGRFTISRDNAKTTVYLQMNSLKPEDTAVYYFNAKSYRYFGVRRFNYWGQGTQVTVSS | high polyreactivity
6 | QVQLVESGGGLVQAGGSLRLSCAASGSIFEGNGMGWNRQEPGNVRELVAAITFRSGSTYYADSVKGRFTISRDNAKNSVYLQMNSLKPEDTAVYYCAADEYYQVSAYDYWGQGTQVTVSS | low polyreactivity
7 | QVQLVESGGGLVQAGGSLRLSCAPSGLTFTTYAMGWYRQAPGKERELVAAISRRGSRTYYADSVKGRFTISRDNAKNTVYLQMNSLKPEDTAVYYCNALTGSFKTYSFDYWGQGTQVTVSS | high polyreactivity
8 | QVQLVESGGGLVQAGGSLRLSCAASGNIFYGYAMGWYRQAPGKERELVAAITSSGGGTSYADSVKGRFTISRDNAKNTVYLQMNSLKPVDTAVYYCTKRPWYLSDYWGQGTQVTVSS | low polyreactivity
9 | QVQLVESGGGLVQAGGSLRLSCAASGTTFGGNSMGWYRQAPGKERELVAAIDSGGSTYADSVKGRFTISRDNAKNTVYLQMNSLKPEDTAVYYCAAVWEFVHYWRFDYWGQGSQVTVSS | low polyreactivity
10 | PVQHVESGGGLVQAGGSLRLSCAASGSIFVWYAMGWYRQAPGKERELVAAITINCGSTYYADSVKGRFTISRDTAKNIVYLQMNSLKPEAKAVYYCAADYYTRDRYEFDSWGQGTQVTVSS | low polyreactivity
11 | QVQLVESGGGLVQAGGSLRLSCAASGRIFRDYAMGWYRQAPGKERELVAAIRSVGNTNYADSVKGRFTISRDNAKNTVYLQMNSLKPEDTAVYYCNRQGSDFSRQAIGDFRFDYWGQGTQVTVSS | low polyreactivity
12 | QVKLVESGGGLVQAGGSLRLSCAASGFTFANYAMGWYRQAPGKEREFVAAITKGGGSTNYADSVKGRFTISRDNAKNTVYLQMNSLKPEDTAVYYCNADYFVWYIGRVFSRYGYWGQGTQVTVSS | low polyreactivity
13 | QVHLVESGGGLVQAGCSLRLSCAASGSTIYRYAMGWYRQAPGKERELVASINGGDDTYYADSVKGRFTISRDNAKNNVYLQMTSLKPEDTAVYYCAAEVYGSWPFDTYYYWGQGTQVTVSS | high polyreactivity
14 | QVQLVESGGGLVQAGGSLRLSCAASGRIFYRYVMGWYRQAPGKERELVAAITSSGGSTYYADSVKGRFTISRDNAKNTVYLQMNSLKPEDTAVYYCAADRYTRYRYNYWGQGTQVTVSS | high polyreactivity
15 | QVQLVESGGGLVQAGGSLRLSCAASGFIFYINAMGWYRQAPGKERELVAAISTSGGSTYYADSVKGRFTISRDNAKNTVYLQMNSLKPEDTAVYYCAAEGSYWYYSYDYWGQGTQVTVSS | high polyreactivity
16 | QVQLVESGGGLVQAGGSLRLSCAASGLTFDANAMGWYRQAPGKERELVATITSGGSTNYADSVKGRFTISRDNAKNTVYLQMNSLKPEDTAVYYCARGTSTGTYYWYGYWGHGTQVTVSS | low polyreactivity
17 | QVQLVESGGGLVQAGGSLRLSCAASGLTFPHYAMGWYRQAPGKERELVAAISSGGSTHYADSVKGRFTISRDNAKNTVYLQMNSLKPEDTAVYYCAARRHGRRTVQGKFDFWGQGTQVTVSS | high polyreactivity
18 | QVQLVESGGGLVQAGGSLRLSCAASGSIFAINTMGWYRQAPGKERELVAAITSGGSTYYSDSVKGRFTISRDNAKNTVYLQMNSLKPEDTAVYYCAATPIGQHFTVDYWGQGTQVTVSS | low polyreactivity
19 | QVQLVESGGGLVQAGGSLRLSCAASGRIFPGYAMGWYRQAPGKERELVAGISNDASTNYADSVKGRFTISRDNAKNTVYLQMNSLKPEDTAVYYCAAEISYLSVPRYDDWGQGTQVTVSS | low polyreactivity
20 | QVQLVESGGGLVQAGGSLRLSCAASGSIFRGYDMGWYRQAPGKERELVARISRGTGTHYADSVKGRFTISRDNAKNTVYLQMNSLKPEDTAVYYCAARYRYYPVTTRGYYWGQGTQVTVSS | high polyreactivity
21 | QVQLVESGGGLVQAGGSLRLSCAASGRTFYNAMGWYRQAPGKERELVAAISASGARTYYADSVKGRFTISRDNAKNTVYLQMNSLKPEDTAVYYCATKSQRYARDYWGQGTQVTVSS | high polyreactivity

Row | Sequence | polyreactivity (PSR sort gate)
22 | QVQLVESGGGLVQAGGSLRLSCAASGRTFRLYAMGWYRQAPGKERELVAAITRGGRTNYADSVKGRFTISRDNAKNTVYLQMNSLKPEDPAVYYCAARYVERHTDYYYWGQGTQVTVSS | low polyreactivity
23 | QVQLVESGGGLVQAGGSLRLSCAASGYIFWINSMGWYRQAPGKERELVAAIRYSTGRTYYADSVKGRFTISRDNAKNTVYLQMNSQKPEDTAVYYCNARSWYIRGSQEYYYWGQGTQLTVSS | high polyreactivity
24 | QVQLVESGGGLVQAGGSLRLSCAASGFIFYYYDMGWYRQAPGKERELVAAISFDGDSTYYADSVKGRFTISRDNAKNTVYLQMNSLKPEDTAVYYCAARDYRYRYGYWGQGTQVTVSS | high polyreactivity
25 | QVQLVESGGGLVQAGGSLRLSCAASGFIFSWYAMGWYRQAPGKERELVAAINWSGDSTYYADSVKGRFTISRDNAKNTVYLQMNSLKPEDTAVYYCAADPSYWGDPYDYWGQGTQVTVSS | high polyreactivity
26 | QVQLVESGGGLVQAGGSLRLSCAATGSTFTFNAMGWYRQAPGKEREFVAAITASGGRTYYADSVKGRFTISRDNAKNTVYLQMNSLKPEDTAVYYCAADACLLGPGDFNYWGQGTQVTVSS | low polyreactivity
27 | QVQLVESGGGLVQAGGSLRLSCAASGFIFYNYAMGWYRQAPGKERELVADINSTGITYYADSVKGRFTISRDNAKNTVYLQMNSLKPEDTAVYYCAKDILTSSYRAYSPFEYGYWGQGTQVTVSS | low polyreactivity
28 | QVQLVESGGGLVQAGGSLRLSCAASGSIFVRYAMGWYRQAPGKEREFVAARTGNTDYADSVKGRFTISRDNAKNTVYLQMNSLKPEDTAVYYCARRPRSGTVSTPYYSLDYWGQGTQVTVSS | low polyreactivity
29 | QVQLVESRGGLVQAGGSLRLSCACSGGIFVKSAMGCYRKAPCKERELVAAISKRGGRTYYADSVKGRFTISRDNAKNTVYLQMNSLKPEDTAVYYCYADVGVEYDYWGQGTQVTVSS | high polyreactivity
30 | QVQLVESGGGLVQAGGSLRLSCAASGFIFVSYAMGWYRPAPGKERELVAAIDRIGGITYYADSVKGRFTISRDNAKNTVYLQMNSLKPEDTAVYYCAAAARYATVRVGREYYWGQGTQVTVSS | low polyreactivity
31 | QVQLVESGGGLVQAGGSLRLSCAGSGLIFDDYPMGWYRQAPGKERELVAAISWSDGTTYYADSVKGRFTISRDNAKNTVYLQMNSLKPEDTAVYYCAAEEVSGWEYDYWGQGTQVTVSS | high polyreactivity
32 | QVQLVESGGGLVQAGGSLRLSCAASGYILRSHAMGWYRQAPGKEWEFVAAITYSGGSTYYADSVKGRFTISRDNAKNTVYLQLNSLKPEVTAVYYCSKTTRYPRGYGYWGQGTQVTVSS | low polyreactivity
33 | QVQLVESGGGLVQAGGSLRLSCASSGSIFKANGMGWYRQAPGKEREFVAAITRSGATTYYADSVKGRFTISRDNAKNTVYLQMNSLKTEDTAVYYCNVKAWRDLYYAGFDYWGQGTQVTVSS | low polyreactivity
34 | QVQLVESGGGLVQAGGSLRLSCAASGRTFTRYAMGWYRQAPGKERELVAAITIGDTTNYADSVKGRFTISRDNAKNTVYLQMNSLKPEDTAVYYCAAYVPRWSSYRRGGYWGQGTQVTVSS | high polyreactivity
35 | IIQAGGSLRLSCAASGRTFSGYAMGWYRQAPGKERELIADITSGGSTYYADSVKGRFTISRDNAKNTVYLQMNSLKPEDTAVYYCAAERQIRSFWSSRTYEFGYWGQGTQVTVSS | low polyreactivity
36 | HVQLGESGGGLVQAGGSLRLSCAASGSTFFPYAMGRYRQAPGKEMELVAAISYSGDSTYYADSVKGRFTISRDTAKNTVYLQMNSLKPEDNAVYYCNAVYFRYRYKYWGQGSQVTVSS | high polyreactivity
37 | QVQLVESGGGLVQAGGSLRLSCAASGRTFYPNAMGWYRQAPGKERELVAAISYSGGSTYYADSVKGRFTISRDNAKNTVYLQMNSLKPEDTAVYYCAAEFSLDKRDYWGQGTQVTVSS | low polyreactivity
38 | QVQLVESGGGLVQAGGSLRLSCAASGSTYRGYAMGWYRQAPGKERELVAAISWSGAATYYADSVKGRFTISRDNAKNTVYLQMNSLKPEDTAVYYCAKVARQNWFRYNYDYWGQGTQVTVSS | high polyreactivity
39 | QVQLVESGGGLVQAGGSLRLSCAASGLIFSGYAMGWYRQAPGKERELVAAISTRGGSTFYADSVKGRFTISRDNAKNTVYLQMNSLKPEDTAVYYCAADGAGGYYYWGQGTQVTVSS | high polyreactivity
40 | QVQLVESGGGLVQAGGSLRLSCAASGLIIWLYTLGWYRQAPGKESELVAAIDWSGGSTYYADSVKGRFTISRDNAKNTVYLQMNSLKPEDTAVYYCAADPEPSYRFDYWGQGTQVTVSS | low polyreactivity
41 | QVQHVESGGGLVQAGGSLRLSCASSGSIFYFYAKGWYRQAPGKERELVAAISWSGGSTYYADSVKGRFTISRDNAKNTFYLQMNSLKPEDTAVYYCNAADYWYWENDYWGQGTQVTVSS | low polyreactivity

Reference: the nanobody polyreactivity screen of Harvey et al. (2022)
